From patent publication US20140179896A1 (published 2014)
Substitutions are numbered along the chain they refer to.

B1: E5 (designed binder)
chain: EVVAATPTSLLISWRHPHFPTRYYRITYGETGGNSPVQEFTVPLQPPTATISGLKPGVDYTITGYAVTDGQNGRLLNVPISINYRT
notes: Del 1-8 10Fn3 clone; Flag tag of the radioactive-assay form not included
B2: E26 (designed binder)
chain: B1 chain with D69V, G70E, Q71R, L75E, N77M, V78T
notes: 10Fn3 clone, Del 1-8
B3: E18 (designed binder)
chain: B1 chain with D69V, G70E, Q71R, L75E, V78T
notes: 10Fn3 clone, Del 1-8
B4: E29 (designed binder)
chain: B1 chain with D69V, G70E, Q71R, L75V, N77M, V78T
notes: 10Fn3 clone, Del 1-8
B5: E9 (designed binder)
chain: B1 chain with D69E, G70E, Q71R, L75T, N77R, V78T
notes: 10Fn3 clone, Del 1-8
B6: K15 (designed binder)
chain: B1 chain with D69E, G70V, Q71H, N72H, G73D, L75E, L76I, N77K, V78T
notes: tag left out
B7: E3 (designed binder)
chain: B1 chain with Q71R, G73D, L75K, N77M
notes: as for B1
B8: E25 (designed binder)
chain: B1 chain with D69L, G70E, Q71R, L75E, N77M, V78T
notes: as for B1
B9: E9 (designed binder)
chain: B1 chain with D69E, G70E, Q71R, L75T, N77R, V78T
notes: as for B1
B10: K12 (designed binder)
chain: B1 chain with G70V, Q71Y, G73D, R74H, L75E, L76I, N77K, V78T
notes: tag left out
B11: E5 (designed binder)
chain: B1 chain
notes: 10Fn3 clone, Del 1-8
B12: K14 (designed binder)
chain: B1 chain with D69R, G70E, Q71E, G73D, R74H, L75E, N77L, V78I
notes: tag left out
B13: E3 (designed binder)
chain: B1 chain with Q71R, G73D, L75K, N77M
notes: 10Fn3 clone, Del 1-8
B14: E6 (designed binder)
chain: B1 chain with Q71W, N77S, V78I
notes: 10Fn3 clone, Del 1-8
B15: E19 (designed binder)
chain: B1 chain with D69V, G70E, Q71R, L75H, N77M, V78T
notes: 10Fn3 clone, Del 1-8
B16: E25 (designed binder)
chain: B1 chain with D69L, G70E, Q71R, L75E, N77M, V78T
notes: 10Fn3 clone, Del 1-8
B17: K10 (designed binder)
chain: B1 chain with D69T, Q71P, G73D, N77F
notes: tag left out
B18: K6 (designed binder)
chain: B1 chain with Q71K, N72D, L75V, N77L, V78T
notes: tag left out
B19: K9 (designed binder)
chain: B1 chain with D69F, Q71L, N72Y, R74K, L75E, N77L, V78I
notes: tag left out
B20: E28 (designed binder)
chain: B1 chain with D69L, G70E, Q71R, L75E, N77M
notes: as for B1
B21: E6 (designed binder)
chain: B1 chain with Q71W, N77S, V78I
notes: Del 1-8 10Fn3 clone; Flag-tagged in vitro translated protein in the radioactive assay, His6-tagged E. coli protein in BIAcore; tags left out
B22: E25 (designed binder)
chain: B1 chain with D69L, G70E, Q71R, L75E, N77M, V78T
notes: as for B21
B23: K1 (designed binder)
chain: B1 chain with D69M, Q71L, N72Y, R74H, L75E, N77L, V78T
notes: tag left out
B24: E28 (designed binder)
chain: B1 chain with D69L, G70E, Q71R, L75E, N77M
notes: 10Fn3 clone, Del 1-8
B25: K13 (designed binder)
chain: B1 chain with D69L, G70A, Q71L, N72K, R74H, L75E, N77L, V78T
notes: tag left out
B26: M5FL-PEG40 (designed binder)
chain: MGVSDVPRDLEVVAATPTSLLISWRHPHFPTRYYRITYGETGGNSPVQEFTVPLQPPLATISGLKPGVDYTITVYAVTKERNGRELFTPISINYRTEIDKPCQHHHHHH
modifications: branched 40 kD PEG coupled by maleimide chemistry to the cysteine residue at position 100
notes: also called M5FL 40K PEG

Tests used:
[1] = target: T1, mouse vascular endothelial growth factor receptor-2 Fc chimera (Flk-1-Fc) (mouse, UniProt P35918 20-762); assay: binding to 1 nM Flk-1-Fc, % of input; radioactive equilibrium binding (assay not given)
T1 construct: Purchased from R&D Systems; also called mouse VEGF-R2; not shown: Fc part of the purchased chimera
Experimental: (§1) To prepare ³⁵S-labeled binding proteins for analysis, mRNA was prepared as described above for RNA-protein fusion production but the linker ligation step was omitted. The mRNA was expressed using rabbit reticulocyte lysate translation kit (Ambion) in the presence of ³⁵S-labeled Met at 30° C. for 1 hour. Expressed protein was purified on M2-agarose Flag beads (Sigma) as described above. This procedure produced the encoded protein without the nucleic acid tail. In a direct binding assay, VEGF-R2-Fc fusions in concentrations ranging from 0 to 200 nM were added to a constant concentration of the purified protein (0.2 or 0.5 nM) and incubated at 30° C. for 1 hour in buffer B. The receptor-binder complexes were captured using Protein A magnetic beads for another 10 minutes at room temperature using a Kingfisher™ The beads were washed with six reaction volumes of buffer B. The protein was eluted from the beads with 100 μL of 0.1 M KOH. […] of the reaction mixture and elution were dried onto a LumaPlate-96 (Packard) and the amount of ³⁵S on the plate was measured using a TopCount NXT instrument (Packard). The amount of fibronectin-based scaffold protein bound to the target was estimated as a percent of radioactivity eluted from Protein A magnetic beads compare to radioactivity in the reaction mixture. Nonspecific binding of fibronectin-based scaffold proteins to the beads was determined by measuring binding in the absence of KDR-Fc and represented less than 1-2% of the input. Specific binding was obtained through subtraction of nonspecific binding from total binding. Data was analyzed using the GraphPad Prizm software (GraphPad Software, Inc, San Diego, Calif.), fitted using a one site, non-linear binding equation.
T1 sequence (P35918 20-762, change not shown): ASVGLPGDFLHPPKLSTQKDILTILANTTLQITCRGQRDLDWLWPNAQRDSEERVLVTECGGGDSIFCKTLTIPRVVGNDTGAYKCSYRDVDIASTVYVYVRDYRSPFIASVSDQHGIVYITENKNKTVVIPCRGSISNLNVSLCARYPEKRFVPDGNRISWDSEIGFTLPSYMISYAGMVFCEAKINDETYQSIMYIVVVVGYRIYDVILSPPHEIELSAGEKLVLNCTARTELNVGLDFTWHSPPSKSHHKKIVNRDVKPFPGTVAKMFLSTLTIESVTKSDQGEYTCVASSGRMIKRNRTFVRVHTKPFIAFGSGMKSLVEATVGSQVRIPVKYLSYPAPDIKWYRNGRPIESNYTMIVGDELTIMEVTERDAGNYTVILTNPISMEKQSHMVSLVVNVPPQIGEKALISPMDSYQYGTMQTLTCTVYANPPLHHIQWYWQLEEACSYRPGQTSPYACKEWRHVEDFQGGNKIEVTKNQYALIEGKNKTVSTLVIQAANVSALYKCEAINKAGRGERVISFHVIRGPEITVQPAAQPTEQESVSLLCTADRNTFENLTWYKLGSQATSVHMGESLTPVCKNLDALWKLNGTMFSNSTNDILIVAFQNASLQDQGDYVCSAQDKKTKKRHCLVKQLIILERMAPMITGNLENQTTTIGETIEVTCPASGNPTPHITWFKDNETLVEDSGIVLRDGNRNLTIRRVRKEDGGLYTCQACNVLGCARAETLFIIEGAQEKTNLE

[2] = target: T1, mouse vascular endothelial growth …; assay: radioactive equilibrium binding (assay not given)
Experimental: as §1

[3] = target: T2, human vascular endothelial growth factor receptor-2 Fc chimera (KDR-Fc) (human, UniProt P35968 20-764); assay: radioactive equilibrium binding (assay not given)
T2 construct: range 1-764; also called human VEGFR-2; hKDR; not shown: human IgG1 Fc
Experimental: as §1
T2 sequence (P35968 20-764 limits assumed, change not shown, form in doubt): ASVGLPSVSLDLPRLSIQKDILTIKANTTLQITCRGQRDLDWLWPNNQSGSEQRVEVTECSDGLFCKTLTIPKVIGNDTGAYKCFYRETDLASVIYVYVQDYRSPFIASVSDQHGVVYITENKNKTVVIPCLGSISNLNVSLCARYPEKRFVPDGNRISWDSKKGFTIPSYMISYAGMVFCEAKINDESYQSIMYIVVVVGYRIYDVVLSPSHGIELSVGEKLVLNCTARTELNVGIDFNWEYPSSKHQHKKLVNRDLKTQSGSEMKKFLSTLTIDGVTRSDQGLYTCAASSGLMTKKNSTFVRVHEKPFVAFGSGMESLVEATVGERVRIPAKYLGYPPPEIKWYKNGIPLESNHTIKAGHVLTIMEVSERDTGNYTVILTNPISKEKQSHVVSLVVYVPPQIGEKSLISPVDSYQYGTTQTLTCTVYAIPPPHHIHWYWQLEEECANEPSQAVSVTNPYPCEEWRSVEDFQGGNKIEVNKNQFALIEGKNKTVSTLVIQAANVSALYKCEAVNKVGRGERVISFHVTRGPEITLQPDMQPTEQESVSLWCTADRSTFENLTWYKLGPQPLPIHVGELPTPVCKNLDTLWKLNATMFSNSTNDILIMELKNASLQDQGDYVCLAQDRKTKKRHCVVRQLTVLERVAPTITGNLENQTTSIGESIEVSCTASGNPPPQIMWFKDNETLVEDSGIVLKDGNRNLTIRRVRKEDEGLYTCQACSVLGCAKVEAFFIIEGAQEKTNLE

[4] = target: T2, human vascular endothelial growth …; assay: binding to 1 nM KDR-Fc, % of input; radioactive equilibrium binding (assay not given)
Experimental: as §1

[5] = target: T3, human vascular endothelial growth factor receptor-2 Fc chimera (KDR-Fc) (human, UniProt P35968 20-764); assay: radioactive equilibrium binding assay, KDR-Fc
T3 construct: range 1-764; also called human VEGFR-2; not shown: human IgG1 Fc
Experimental: as §1
T3 sequence (P35968 20-764 limits assumed, change not shown, form in doubt): as above

[6] = target: T4, mouse vascular endothelial growth factor receptor-2 Fc chimera (Flk-1-Fc) (mouse, UniProt P35918 20-762); assay: radioactive equilibrium binding assay, Flk-1-Fc
T4 construct: Bought from R&D Systems; also called mouse VEGFR-2; not shown: Fc part of the purchased chimera, not specified
Experimental: as §1
T4 sequence (P35918 20-762, change not shown): as the sequence (P35918 20-762, change not shown) above

[7] = target: T4, mouse vascular endothelial growth …; assay: radioactive equilibrium binding assay, 1 nM Flk-1-Fc, % of input bound
Method in brief: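 Tracer: ³⁵S-Met protein from reticulocyte lysate, Flag-bead purified, no nucleic acid tail. 0.2/0.5 nM binder + 0–200 nM receptor-Fc, 30° C 1 h, buffer B; Protein A bead capture 10 min RT; 0.1 M KOH elution; scintillation count.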

[8] = target: T3, human vascular endothelial growth …; assay: radioactive equilibrium binding assay, 1 nM KDR-Fc, % of input bound
Method in brief: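 Read-out: eluted ³⁵S as % of input radioactivity, minus bead-only binding without KDR-Fc (under 1-2% of input); one-site non-linear fit. Tracer binder 0.2 or 0.5 nM, receptor-Fc 0–200 nM, 1 h at 30° C in buffer B.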

[9] = target: T5, human vascular endothelial growth factor receptor-2 Fc chimera (KDR-Fc) (human, UniProt P35968 20-764); assay: radioactive equilibrium binding assay, KDR-Fc
T5 construct: range 1-764; purchased from R&D Systems; also called hKDR; human VEGF-R2-Fc; not shown: human IgG1 Fc
Experimental: as §1
T5 sequence (P35968 20-764 limits assumed, change not shown, form in doubt): as the sequence (P35968 20-764 limits assumed, change not shown, form in doubt) above

[10] = target: T5, human vascular endothelial growth …; assay: BIAcore, target-Fc immobilized
Experimental: (§2) The binding kinetics of fibronectin-based scaffold proteins binding proteins to the target was measured using BIAcore 2000 biosensor (Pharmacia Biosensor). Human and mouse VEGF-R2-Fc fusions were immobilized onto a CM5 sensor chip and soluble binding proteins were injected at concentrations ranging from 0 to 100 nM in buffer 0 (10 mM HEPES, 150 mM NaCl, 0.005% Tween 20, pH 7.4). Sensorgrams were obtained at each concentration and were evaluated using a program, BIA Evaluation 2.0 (BIAcore), to determine the rate constants kₐ (kₒₙ) and kd (koff.) The affinity constant, KD was calculated from the ratio of rate constants […].

[11] = target: T6, mouse vascular endothelial growth factor receptor-2 Fc chimera (Flk-1-Fc) (mouse, UniProt P35918 20-762); assay: BIAcore, target-Fc immobilized
T6 construct: purchased from R&D Systems; also called mouse VEGF-R2-Fc; not shown: Fc part of the purchased chimera
Experimental: as §2
T6 sequence (P35918 20-762, change not shown): as the sequence (P35918 20-762, change not shown) above

[12] = target: T5, human vascular endothelial growth …; assay: radioactive equilibrium binding assay
Experimental: as §1

[13] = target: T6, mouse vascular endothelial growth …; assay: radioactive equilibrium binding assay
Experimental: as §1

[14] = target: T6, mouse vascular endothelial growth …; assay: SPR (BIAcore), target immobilized
Experimental: In vitro affinity measurements were made using surface plasmon resonance (SPR) (BIAcore) with both the human and mouse VEGF-receptor target proteins immobilized via amide chemistry on the BIAcore chip.
as §2

Binder | Kd [5] | Kd [6] | Binding to 1 nM Flk-1, % [7] | Binding to 1 nM KDR, % [8] | Kd [9] | also measured
B1 | – | – | – | – | – | Binding to 1 nM FLK, % [1]: 10%; Kd [2]: 3.2 nM; Kd [3]: 0.4 nM; Binding to 1 nM KDR, % [4]: 26%
B2 | 1.66 nM | 2.05 nM | 20% | 27% | – | –
B3 | 1.2 nM | 0.53 nM | 29% | 17% | – | –
B4 | 1.51 nM | 0.91 nM | 44% | 41% | – | –
B5 | 2.37 nM | 1.4 nM | 34% | 24% | – | –
B6 | – | – | – | – | < 0.4 nM | –
B7 | – | – | – | – | – | Binding to 1 nM FLK, % [1]: 14%; Kd [2]: 5.4 nM; Kd [3]: 0.96 nM; Binding to 1 nM KDR, % [4]: 37%
B8 | – | – | – | – | – | Binding to 1 nM FLK, % [1]: 28%; Kd [2]: 1.3 nM; Kd [3]: 1.58 nM; Binding to 1 nM KDR, % [4]: 41%
B9 | – | – | – | – | – | Binding to 1 nM FLK, % [1]: 34%; Kd [2]: 1.4 nM; Kd [3]: 2.37 nM; Binding to 1 nM KDR, % [4]: 24%
B10 | – | – | – | – | < 0.6 nM | –
B11 | 0.4 nM | 3.2 nM | 10% | 26% | – | –
B12 | – | – | – | – | < 0.6 nM | –
B13 | 0.96 nM | 5.4 nM | 14% | 37% | – | –
B14 | 0.35 nM | 7.1 nM | 7% | 36% | – | –
B15 | 1.3 nM | 0.66 nM | 40% | 38% | – | –
B16 | 1.58 nM | 1.3 nM | 28% | 41% | – | –
B17 | – | – | – | – | < 0.6 nM | –
B18 | – | – | – | – | < 0.9 nM | –
B19 | – | – | – | – | < 1.8 nM | –
B20 | – | – | – | – | – | Binding to 1 nM FLK, % [1]: 21%; Kd [2]: 2.1 nM; Kd [3]: 1.63 nM; Binding to 1 nM KDR, % [4]: 19%
B21 | – | – | – | – | – | Kd [10]: 0.08 nM; koff [10]: 6.7e-05 s⁻¹; kon [10]: 890000 M⁻¹ s⁻¹; Kd [11]: 2.02 nM; koff [11]: 0.00136 s⁻¹; kon [11]: 670000 M⁻¹ s⁻¹; Kd [12]: < 0.4 nM; Kd [13]: 7.1 nM
B22 | – | – | – | – | – | Kd [10]: 0.21 nM; koff [10]: 5.2e-05 s⁻¹; kon [10]: 250000 M⁻¹ s⁻¹; Kd [11]: 0.76 nM; koff [11]: 0.000378 s⁻¹; kon [11]: 500000 M⁻¹ s⁻¹; Kd [12]: < 1.6 nM; Kd [13]: < 1.3 nM
B23 | – | – | – | – | < 0.6 nM | –
B24 | 1.63 nM | 2.1 nM | 21% | 19% | – | –
B25 | – | – | – | – | < 0.6 nM | –
B26 | – | – | – | – | – | Kd [14]: 57.1 nM; koff [14]: 0.00054 s⁻¹; kon [14]: 10000 M⁻¹ s⁻¹
